This assay concerns the target β2 adrenoceptor, tagged at the amino-terminus with the FLAG epitope (UniProt P07550). Briefly: cell-based or functional assay.

This passage reports GTPγS-sensitive high-affinity agonist binding sites, basal GTPase activity, tetGsα membranes compared to Gsα membranes and isoproterenol-stimulated GTPase activity, tetGsα membranes compared to Gsα membranes results from patent publication US6448377.

Turning to “membrane-tethered Gsα (tetGsα) (from UniProt P07550 1-64; P07550 343-412)”, the GTPγS-sensitive high-affinity agonist binding sites was 30%; the basal GTPase activity, tetGsα membranes compared to Gsα membranes amounted to 1.6 fold; the isoproterenol-stimulated GTPase activity, tetGsα membranes compared to Gsα membranes was determined as 2.8 fold.
